# Measurements as given in the PETadex activity labels (doi:10.1021/acscatal.9b00568).
# Residue numbers refer to the chain shown, from its start.
# B1: unnamed (protein)
# chain: MNFPRASRLMQAAVLGGLMAVSAAATAQTNPYARGPNPTAASLEASAGPFTVRSFTVSRPSGYGAGTVYYPTNAGGTVGAIAIVPGYTARQSSIKWWGPRLASHGFVVITIDTNSTLDQPDSRSSQQMAALRQVASLNGTSSSPIYGKVDTARMGVMGWSMGGGGSLISAANNPSLKAAAPQAPWHSSTNFSSVTVPTLIFACENDSIAPVNSSALPIYDSMSRNAKQFLEINGGSHSCANSGNSNQALIGKKGVAWMKRFMDNDTRYSTFACENPNSTAVSDFRTANCS
# B2: unnamed (protein)
# chain: B1 chain with D121S, A280R
# B3: unnamed (protein)
# chain: B1 chain with P181A, A280R
# B4: unnamed (protein)
# chain: B1 chain with D121E, A280R
# B5: unnamed (protein)
# chain: B1 chain with D121S, H186I, A280R
# Substrate: PET
# Assay: Proxy for plastic degradation [HPLC-UV]
# Conditions: pH 9; 30 °C; 24 h
row,Protein,Proxy for plastic degradation [µM]
1,B1,22.2
2,B2,10.4
3,B3,13.4
4,B4,18.8
5,B5,1.3

# Same assay, conditions: pH 9; 30 °C; 72 h
row,Protein,Proxy for plastic degradation [µM]
1,B1,57.2
2,B2,12.8
3,B3,18.9
4,B4,30.5
5,B5,2.4

# Same assay, conditions: pH 9; 40 °C; 24 h
row,Protein,Proxy for plastic degradation [µM]
1,B1,69.8
2,B2,8.7
3,B3,18
4,B4,38.7
5,B5,1.2

# Same assay, conditions: pH 9; 40 °C; 72 h
row,Protein,Proxy for plastic degradation [µM]
1,B1,93.6
2,B2,19.7
3,B3,25.3
4,B4,52.2
5,B5,6.9
